Results on one molecule are retold here after patent US9175313B2, “Three-dimensional structure of isoprene synthase and its use thereof for generating variants” (Danisco US Inc., priority 2009, dated 2015).

Data set [1] in a line: Specific activity measurement of purified isoprene synthase variants (4 mM DMAPP, 30 C, GC-MS headspace). As to conditions: 50 mM NaCl, 50 mM Tris pH = 8, 30° C. Type of data set: biochemical. A digest of the protocol: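 Ni-affinity-purified, buffer-exchanged enzyme incubated with 4 mM DMAPP and 50 mM MgCl2 in 50 mM Tris, 50 mM NaCl, pH 8, for 15 min at 30 C in sealed vials; stopped with EDTA. Headspace isoprene quantified by GC-MS, in triplicate; protein concentration from A280 with calculated extinction coefficient.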

Data set [2] is described as follows: Differential scanning calorimetry, thermal midpoint (Tm). The format is physicochemical. The protocol:
Excessive heat capacity curves were measured using an ultrasensitive scanning high-throughput microcalorimeter, VP-Cap DSC (MicroCal, Inc., Northampton, Mass.). The standard procedure for Differential Scanning calorimetry (DSC) measurements and the theory of the technique is previously published (Freire, E. (1995) Differential Scanning calorimetry Methods. Mol. Biol. 41, 191-218). Approximately 500 μL of 0.5 mg/ml IspS (from strain MD09-167) or variant IspS-L494P (from strain DW399) and IspS-T536F (from strain DW363) (in the absence or presence of 5 mM sodium pyrophosphate) were scanned over a 30-100° C. temperature range. The same sample was then re-scanned to check the reversibility of the process. For IspS the thermal unfolding process was irreversible. The buffer used was 50 mM HEPES, 5 mM MgCl2, pH 7.4, with and without 5 mM sodium pyrophosphate. Sodium pyrophosphate was included for its ability to function as a substrate analog. A 200° C./hr scan rate was used to minimize any artifacts that may result from aggregation. The thermal midpoint (Tm) of the DSC curves was used as an indicator of the thermal stability. The thermal melting curves and the melting points for the wild type IspS and variants are shown in FIG. 56 (buffer only) and 57 (with 5 mM sodium pyrophosphate).
A general note: Differential scanning calorimetry records heat flow against a reference as temperature is scanned.

Data set [3] can be described thus: kcat, KM and Ki determination, rate vs [DMAPP], fit to uncompetitive substrate inhibition. The format is biochemical. The protocol:
10 uL of purified enzyme was incubated with DMAPP at concentrations ranging from 1.25 to 20 mM DMAPP in a buffer containing 50 mM Tris, 50 mM MgCl2 and 50 mM NaCl (pH=8) to a final volume of 100 uL for 15 min. at 30 C in gas tight 2 mL vials. Reactions were terminated with the addition of 100 uL of 250 mM EDTA, pH=8. Samples were analyzed by GC-MS to determine the concentration of isoprene in the headspace of the vials. Data were analyzed using Kaleidagraph and fit to following equation for uncompetitive substrate inhibition: rate/E=kcat*S/(KM+S*(1+S/Ki)). All kinetic assays were performed in triplicate.
Protein concentration was determined by measuring the absorbance of each protein solution at 280 nm on a Helwlett Pachard 8453 UV-Vis spectrophotometer and converting the absorbance to protein concentration using the extinction coefficient as determined on the Expasy website (Gasteiger E., Hoogland C., Gattiker A., Duvaud S., Wilkins M. R., Appel R. D., Bairoch A.; Protein Identification and Analysis Tools on the ExPASy Server; (In) John M. Walker (ed): The Proteomics Protocols Handbook, Humana Press (2005). pp. 571-607). The protein concentrations of isoprene synthase variants assayed for KM and kcat determination were verified by comparative gel electrophoresis of a dilution series of each protein (FIG. 61).

The Km is the concentration of substrate that gives half-maximal velocity.

B1: wild type IspS: P. alba MEA (+) TEV isoprene synthase, MD09-163, strain MD09-167, SEQ ID NO: 63 (protein)
chain: MEARRSANYEPNSWDYDYLLSSDTDESIEVYKDKAKKLEAEVRREINNEKAEFLTLLELIDNVQRLGLGYRFESDIRGALDRFVSSGGFDAVTKTSLHGTALSFRLLRQHGFEVSQEAFSGFKDQNGNFLENLKEDIKAILSLYEASFLALEGENILDEAKVFAISHLKELSEEKIGKELAEQVNHALELPLHRRTQRLEAVWSIEAYRKKEDANQVLLELAILDYNMIQSVYQRDLRETSRWWRRVGLATKLHFARDRLIESFYWAVGVAFEPQYSDCRNSVAKMFSFVTIIDDIYDVYGTLDELELFTDAVERWDVNAINDLPDYMKLCFLALYNTINEIAYDNLKDKGENILPYLTKAWADLCNAFLQEAKWLYNKSTPTFDDYFGNAWKSSSGPLQLVFAYFAVVQNIKKEEIENLQKYHDTISRPSHIFRLCNDLASASAEIARGETANSVSCYMRTKGISEELATESVMNLIDETWKKMNKEKLGGSLFAKPFVETAINLARQSHCTYHNGDAHTSPDELTRKRVLSVITEPILPFERENLYFQGLEHHHHHH
modifications: TEV site
B1 came in with a S.A. in data set [1] of 480 ± 20 nmol/mg/min. Further, the “Variant S.A./WT S.A.” value in data set [1] (ratio to WT) is on record as 1.0. In addition, the “thermal melting point (Tm)” value was 58.3 °C in data set [2] (buffer alone (50 mM HEPES, 5 mM MgCl2, pH 7.4)) and 54.7 °C in data set [2] (in the presence of 5 mM sodium pyrophosphate). Also, the “reversibility of the thermal unfolding process” value in data set [2] (re-scan of the same sample) is recorded as “irreversible”. Further, the “rate profile vs [DMAPP]” value in data set [3] (1.25 to 20 mM DMAPP, 30 C) was “uncompetitive substrate inhibition by DMAPP”. Moreover, the Km in data set [3] (1.25 to 20 mM DMAPP, 30 C, average of three trials ± one standard deviation) was 7 ± 4 mM. In addition, the kcat in data set [3] (1.25 to 20 mM DMAPP, 30 C, average of three trials ± one standard deviation, in s^-1 (unit assumed)) turned out to be 1.5 ± 0.6. Also, the Ki in data set [3] (uncompetitive substrate inhibition by DMAPP, average of three trials ± one standard deviation, read-out: KiDMAPP) stood at 16 ± 9 mM.
